Data set [1] has as its target CEP97^CP110-GFP-SII (CEP97 residues 1–650 fused to CP110 residues 581–991) (human) (UniProt Q8IW35).
Data set [2] deals with the molecule itself. The data set is described as follows: single-molecule fluorescence intensity (TIRF microscopy); single molecules immobilised on coverslips in MRB80; intensity compared with GFP (monomers) and GFP-EB3 (dimers).
For data set [3], the target named is T1, CPAP-CC1 (residues 89–196) (human, UniProt Q9HC77 89-196).
T1 construct: Calculated mass of the monomer: 12.5 kDa; source: E. coli BL21(DE3), purified (Ni-NTA, tag cleaved with HRV 3C protease, SEC); not shown: thioredoxin, N-terminal, cleaved; His6, N-terminal, cleaved
T1 sequence (looked up): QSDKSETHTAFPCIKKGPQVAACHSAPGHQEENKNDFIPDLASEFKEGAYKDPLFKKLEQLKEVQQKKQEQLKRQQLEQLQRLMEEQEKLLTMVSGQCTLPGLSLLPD
The data set can be described thus: cross-linking; zero-length cross-linking with 60 mM DMTMM, 6 min, 25°C, then mass spectrometry (xQuest). The following applies: both partners purified.

Data set [4] deals with the molecule itself. The data set is described as follows: SEC-MALS; 20°C, Superdex S75 10/30 or S200 10/30, 20 mM HEPES pH 7.5, 150 mM NaCl, 2 mM DTT; 15 µl at ∼7 mg/ml; proteins alone or mixed equimolar (also 2:1 and 3:1); homodimer for CP110-CC2. In general terms: Size exclusion chromatography separates by hydrodynamic size, large species first.

For “CPAP-NWT-mCh (CPAP 1–607, GCN4 leucine zipper, mCherry, SII) (from UniProt Q9HC77 1-607)”, in data set [1], the MT plus-end growth rate with 20 nM CEP97^CP110-GFP and 50 nM CPAP-NWT-mCh (TIRF reconstitution) fell in the range of 0.05 to 0.1 µm/min; the percentage of time CEP97^CP110 was present at MT plus ends, 20 nM CEP97^CP110-GFP with 50 nM CPAP-NWT-mCh is 69%.

Regarding “CPAP-NMUT-mCh (CPAP 1–607 L149A/K150A, GCN4 leucine zipper, mCherry, SII) (from UniProt Q9HC77 1-607)”, the percentage of time CEP97^CP110-GFP was bound to MT plus ends, 20 nM CEP97^CP110-GFP with 50 nM CPAP-NMUT-mCh in data set [1] was 26%.

B1: CEP97^CP110-GFP-SII (CEP97 residues 1–650 fused to CP110 residues 581–991) (other, human, UniProt Q8IW35 1-650, looked up)
chain: MAVARVDAALPPGEGSVVNWSGQGLQKLGPNLPCEADIHTLILDKNQIIKLENLEKCKRLIQLSVANNRLVRMMGVAKLTLLRVLNLPHNSIGCVEGLKELVHLEWLNLAGNNLKAMEQINSCTALQHLDLSDNNISQIGDLSKLVSLKTLLLHGNIITSLRMAPAYLPRSLAILSLAENEIRDLNEISFLASLTELEQLSIMNNPCVMATPSIPGFDYRPYIVSWCLNLRVLDGYVISQKESLKAEWLYSQGKGRAYRPGQHIQLVQYLATVCPLTSTLGLQTAEDAKLEKILSKQRFHQRQLMNQSQNEELSPLVPVETRASLIPEHSSPVQDCQISQESEPVIQVNSWVGINSNDDQLFAVKNNFPASVHTTRYSRNDLHLEDIQTDEDKLNCSLLSSESTFMPVASGLSPLSPTVELRLQGINLGLEDDGVADESVKGLESQVLDKEEEQPLWAANENSVQMMRSEINTEVNEKAGLLPCPEPTIISAILKDDNHSLTFFPESTEQKQSDIKKPENTQPENKETISQATSEKLPMILTQRSVALGQDKVALQKLNDAATKLQACWRGFYARNYNPQAKDVRYEIRLRRMQEHIVCLTDEIRRLRKERDEERIKKFVQEEAFRFLWNQVRSLQVWQQTVDQRLSSWHFEKVKRRLDLDIDGLQKENCPYVITSGITEQERQHLPEKRYPKGSGFVNKNKMLGTSSKESEELLKSKMLAFEEMRKRLEEQHAQQLSLLIAEQEREQERLQKEIEEQEKMLKEKKAMTAEASELDINNAVELEWRKISDSSLLETMLSQADSLHTSNSNSSGFTNSAMQYSFVSANEAPFYLWGSSTSGLTKLSVTRPFGRAKTRWSQVFSLEIQAKFNKITAVAKGFLTRRLMQTDKLKQLRQTVKDTMEFIRSFQSEAPLKRGIVSAQDASLQERVLAQLRAALYGIHDIFFVMDAAERMSILHHDREVRKEKMLRQMDKMKSPRVALSAATQKSLDRKKYMKAAEMGMPNKKFLVKQNPSETRVLQPNQGQNAPVHRLLSRQGSICRKNPKKAAKCCDNLRRQHSLG
notes: CEP97, human, residues 1-650; Dimer by single-molecule fluorescence intensity; A linker between the two parts is not described; also called CP110-CEP97 fusion; CEP97^CP110 chimera; source: HEK293T, transfected; purified (StrepTactin) for the in vitro assays; in lysate for the co-immunoprecipitation; not shown: GFP, C-terminal, kept; twin-Strep-tag (SII), C-terminal, kept
For B1, in data set [2], the “stoichiometry N” value came out at 2.

B2: CP110-CC2 (residues 635–717) (domain or fragment, human, UniProt O43303-2 635-717, looked up)
chain: GTSSKESEELLKSKMLAFEEMRKRLEEQHAQQLSLLIAEQEREQERLQKEIEEQEKMLKEKKAMTAEASELDINNAVELEWRK
notes: CP110, human, residues 635-717 (coiled-coil domain CC2); Homodimer alone by SEC-MALS; one chain in the heterodimer with CPAP-CC1; Calculated mass of the monomer: 10.0 kDa; also called CP110 fragment 635–717; source: E. coli BL21(DE3), purified (Ni-NTA, tag cleaved with HRV 3C protease, SEC); not shown: thioredoxin, N-terminal, cleaved; His6, N-terminal, cleaved
For the molecule B2, the binding result in data set [3] was “binds”. In data set [4], the “stoichiometry N” value was 2.

One may read the stoichiometry N as the number of molecules, sites or subunits per partner or assembly.

These data come from article PMC11756378, “Centriolar cap proteins CP110 and CPAP control slow elongation of microtubule plus ends” (The Journal of Cell Biology, 2025).
